Key:
[1] = biological target: the molecule itself; assay: static light scattering (SLS); purified recombinant protein; SLS as described previously [3]; the methods name it for the native HsDH protein
[2] = biological target: the molecule itself; assay: SEC; Superdex 200 10/300 GL, 20 mM PIPES/HCl pH 6.8, 150 mM NaCl, 1 mM EDTA, 5% glycerol, 1 mM NaN3, 0.3 ml/min; retention times of wild type and variants compared

| Protein | stoichiometry N [1] | binding result [2] |
| --- | --- | --- |
| wild type 3R-hydroxyacyl-CoA dehydrogenase (DH) fragment of human MFE-2 (multifunctional enzyme type 2) (domain or fragment, 3R-hydroxyacyl-CoA dehydrogenase (DH) fragment of human MFE-2 / D-bifunctional protein; also called HsDH; native HsDH; source: E. coli BL21(DE3)pLysS, pLWRP51::HsDH, purified (Ni-NTA, Superdex 200)) MGSPLRFDGRVVLVTGAGAGLGRAYALAFAERGALVVVNDLGGDFKGVGKGSLAADKVVEEIRRRGGKAVANYDSVEEGEKVVKTALDAFGRIDVVVNNAGILRDRSFARISDEDWDIIHRVHLRGSFQVTRAAWEHMKKQKYGRIIMTSSASGIYGNFGQANYSAAKLGLLGLANSLAIEGRKSNIHCNTIAPNAGSRMTQTVMPEDLVEALKPEYVAPLVLWLCHESCEENGGLFEVGAGWIGKLRWERTLGAIVRQKNHPMTPEAVKANWKKICDFENASKPQSIQESTGSIIEVLSKIDS | 2 | – |
| HsDH(T15A), patient variant of the 3R-hydroxyacyl-CoA dehydrogenase fragment of human MFE-2 (domain or fragment, Made by site-directed mutagenesis of pLWRP51::HsDH; for the limits see the note of m1; also called T15A variant; source: E. coli BL21(DE3)pLysS, pLWRP51 vector, purified (Ni-NTA, Superdex 200)) MGSPLRFDGRVVLVAGAGAGLGRAYALAFAERGALVVVNDLGGDFKGVGKGSLAADKVVEEIRRRGGKAVANYDSVEEGEKVVKTALDAFGRIDVVVNNAGILRDRSFARISDEDWDIIHRVHLRGSFQVTRAAWEHMKKQKYGRIIMTSSASGIYGNFGQANYSAAKLGLLGLANSLAIEGRKSNIHCNTIAPNAGSRMTQTVMPEDLVEALKPEYVAPLVLWLCHESCEENGGLFEVGAGWIGKLRWERTLGAIVRQKNHPMTPEAVKANWKKICDFENASKPQSIQESTGSIIEVLSKIDS | – | binds |
| HsDH(N158D), patient variant of the 3R-hydroxyacyl-CoA dehydrogenase fragment of human MFE-2 (domain or fragment, Made by site-directed mutagenesis of pLWRP51::HsDH; for the limits see the note of m1; also called N158D variant; source: E. coli BL21(DE3)pLysS, pLWRP51 vector, purified (Ni-NTA, Superdex 200)) MGSPLRFDGRVVLVTGAGAGLGRAYALAFAERGALVVVNDLGGDFKGVGKGSLAADKVVEEIRRRGGKAVANYDSVEEGEKVVKTALDAFGRIDVVVNNAGILRDRSFARISDEDWDIIHRVHLRGSFQVTRAAWEHMKKQKYGRIIMTSSASGIYGDFGQANYSAAKLGLLGLANSLAIEGRKSNIHCNTIAPNAGSRMTQTVMPEDLVEALKPEYVAPLVLWLCHESCEENGGLFEVGAGWIGKLRWERTLGAIVRQKNHPMTPEAVKANWKKICDFENASKPQSIQESTGSIIEVLSKIDS | – | binds |
| HsDH(E232K), patient variant of the 3R-hydroxyacyl-CoA dehydrogenase fragment of human MFE-2 (domain or fragment, Made by site-directed mutagenesis of pLWRP51::HsDH; for the limits see the note of m1; also called E232K variant; source: E. coli BL21(DE3)pLysS, pLWRP51 vector, purified (Ni-NTA, Superdex 200)) MGSPLRFDGRVVLVTGAGAGLGRAYALAFAERGALVVVNDLGGDFKGVGKGSLAADKVVEEIRRRGGKAVANYDSVEEGEKVVKTALDAFGRIDVVVNNAGILRDRSFARISDEDWDIIHRVHLRGSFQVTRAAWEHMKKQKYGRIIMTSSASGIYGNFGQANYSAAKLGLLGLANSLAIEGRKSNIHCNTIAPNAGSRMTQTVMPEDLVEALKPEYVAPLVLWLCHESCEKNGGLFEVGAGWIGKLRWERTLGAIVRQKNHPMTPEAVKANWKKICDFENASKPQSIQESTGSIIEVLSKIDS | – | binds |
| HsDH(R248C), patient variant of the 3R-hydroxyacyl-CoA dehydrogenase fragment of human MFE-2 (domain or fragment, Made by site-directed mutagenesis of pLWRP51::HsDH; for the limits see the note of m1; also called R248C variant; source: E. coli BL21(DE3)pLysS, pLWRP51 vector, purified (Ni-NTA, Superdex 200)) MGSPLRFDGRVVLVTGAGAGLGRAYALAFAERGALVVVNDLGGDFKGVGKGSLAADKVVEEIRRRGGKAVANYDSVEEGEKVVKTALDAFGRIDVVVNNAGILRDRSFARISDEDWDIIHRVHLRGSFQVTRAAWEHMKKQKYGRIIMTSSASGIYGNFGQANYSAAKLGLLGLANSLAIEGRKSNIHCNTIAPNAGSRMTQTVMPEDLVEALKPEYVAPLVLWLCHESCEENGGLFEVGAGWIGKLCWERTLGAIVRQKNHPMTPEAVKANWKKICDFENASKPQSIQESTGSIIEVLSKIDS | – | binds |
| HsDH(W249G), patient variant of the 3R-hydroxyacyl-CoA dehydrogenase fragment of human MFE-2 (domain or fragment, Made by site-directed mutagenesis of pLWRP51::HsDH; for the limits see the note of m1; also called W249G variant; source: E. coli BL21(DE3)pLysS, pLWRP51 vector, purified (Ni-NTA, Superdex 200)) MGSPLRFDGRVVLVTGAGAGLGRAYALAFAERGALVVVNDLGGDFKGVGKGSLAADKVVEEIRRRGGKAVANYDSVEEGEKVVKTALDAFGRIDVVVNNAGILRDRSFARISDEDWDIIHRVHLRGSFQVTRAAWEHMKKQKYGRIIMTSSASGIYGNFGQANYSAAKLGLLGLANSLAIEGRKSNIHCNTIAPNAGSRMTQTVMPEDLVEALKPEYVAPLVLWLCHESCEENGGLFEVGAGWIGKLRGERTLGAIVRQKNHPMTPEAVKANWKKICDFENASKPQSIQESTGSIIEVLSKIDS | – | binds |

— article PMC3538638, “On the Molecular Basis of D-Bifunctional Protein Deficiency Type III” (PLoS ONE, 2013)
